# Data: the DeepSol protein solubility set
# Test: soluble on expression in E. coli; label from the status in PepcDB or PDB records
row,Sequence,soluble on expression in E. coli
1,MSLIEEEVLKIIKPTEEDKKGIEKVLEIIRERLNKLDFEVEGSFRKGTWLRQDTDIDVFVFYPKDVGKEYLERNALNDIINRIKDLDYTLAYAEHPYVIVNINNVEVDIVPALRVESGDKAITAVDRTPFHTKYVTSHLDERGKDEVRLLKRFMKGIGVYGAELKVQGFSGYATELLIIYYGNFRKVLEEASKWKHPIKIELTKPMKIFSEPLIIPDPVDPKRNVTAAVSLKNIATFSIAAKYYLKNPSIEFFFPSKKVEEKVKGDVLILRLNLDEKSSEDIVWGQIKRSVNKIERALKQYGFRVIDVQAWGDTNNITIAVQLESKNIGQYYLNIGPQYYSGTIEDFIQKNDNIWVGEDGRLYSIKERKEYDAETIAKKNIVLKVKYNIESYWLQNTEDQQIMKFLRKTPTWLKEGHHHHHH,not soluble
2,GQHSLQYFHTAVSRPGLGEPWFISVGYVDDTQFVRFDSDAENPRMEPRARWMEQEGPEYWERETQIAKGHEQSFRGSLRTAQSYYNQSKGGSHTLQWMYGCDMGSDGRLLRGYLQFAYEGRDYIALNEDLKTWTAVDMAAQITRRKWEQAGIAEKDQAYLEGTCMQSLRRYLELGKETLLRTDPPKAHVTHHPRSYGAVTLRCWALGFYPADITLTWQLNGEELTQDMELVETRPAGDGTFQKWASVVVPLGKEQNYTCHVNHEGLPEPLTLRW,soluble
3,MSATPPTTPAPTAAASAGKGLHSRAYNGLIKACDKYVPPKMRPLWMHPAGPKTIFFWAPIVKWSLVIAGLSDLTRPADKISPNGCLALGATNLIWTRYSLVIIPKNYSLFAVNLFVSLTQLFQLGRYYNYQWEQSRLEKNGEQCPAIEASLLEHHHHHH,not soluble
4,TLAVAAGTGAYLIDKRQKQKAKEPALPAKAEDGSEPISQRELSWDDVQPVDIIGLEVGYRLIPLVDRDQGGELLERVKGVRKKLSQDFGFLIPAVHIRDNLELTPNSYRITLMGVAVGEAEIRPDQELAINPGQVYGMIDGEPTMDPAFGLEAVWIREEQREHAQALGYTVVDSSTVLATHLSQLLTNNASQLIGHEEVQNLLEMLGRSAPKLVENFVPDQLQLGVVVKVLQNLLNEAIPIRDIRTIVQTLAEYSSKSQEPDILTAAVRISLKRLIVQEINGIEPELPVITLIPELEQILHQTMQASGGESAGIEPGLAERLQSSLSHATQEQELKGEPAVLLTSGVLRSTLAKFVKNTIPNLRVLSYQEIPDEKQIRIVQAVGN,not soluble
5,MGSDKIHHHHHHMKTLKNLITSKHQTKASRFLGYLMPFDDFEKTLLQLKKEHFKAAHFVTAFRYSLEGKITEGFSDDGEPKGSSGMPMLSVLRREDLINIGLVSVRYFGGTLLGVGGLMKAYAKSALLCVENAQKEDALKDFVELETLSAHYSYKELDALQREIKKFSLQLSKKNFSNQSVEVEISGTRENLQAFLQQNKIN,not soluble
6,MSNIITDYSQYNEKQLHNFLNSIEKQLLKAERDKNKAIKKIQECELQERMIRQVLAQKHSQEKEPTPSLLNTIASKDDPEYDVSFGDFNDFLQIAKQERERHNA,not soluble
7,GPGSMWRITRLCCKQLIRDESLVSLPPAVHRLEVYRNAVSVDCEERICAELGLLLQREGHTAFAEGSTPQQKIVKHTYLELHGAHKDFTEVKSFQRKETRRLPGLLWSPTLVSWMNEVVPRVRVFPVGVMPDTARVVEHNMTGYEMHMEHPTVGCSFLYLSLLSDTVLTFDDEATGRYGEVFLPQRALMCCSGEIRWGWRFGEQSREVHTFVNASGVRRVVEPDLRLSVQLWKFTPQLLDARLLQDRVEESMKQREAEESNEVVETIAVDRKKNEEEHKGSASSHALFSALAEKGASGTGPLGGEYVEGRTQACKGVEGKSMTMEDIGRDYNTYKQQFQNVHGVLQEMKALQDAGQPINDMWLRKRILDGQKDDNHDAQDGFDPNDVEGTWDRVDAKARFYKARLKGMDYDGTANSNSSMPDVTEDAPLDMKKTIQKIAPLVKDGDKILASLPCGQ,not soluble
8,GIDIDLQMLGERLLKNKIGSIVAIEPETGEILCMVSSPDFDPRLMIGRQRGKNHLMLQRDPMKPLLNRSIMGVYPPGSTFKTAQALTFLQEGIIQTNTPAFPCAHGFNYGSLHVGCHAHGSPLPLIPAIATSCNSYFCWGLFRMFGDRKYGSSQNAITVWKDHMVSQGFGYKLGVDLPGEKRGLIPNAQFYDKAYRGRWNGLTVISIAIGQGEILATPLQIANLGATIANRGHFITPHIVKEIQDEQLDSLYRVPRKTSIDRKHYEDVVTGMRAAVTGGTCRVAGAILPDVEVCGKTGTAQNRGHDHSVFMGFAPMNNPKIAIAVYVENGGFGAVYGVPIGALMMEQYLKGKLSPEN,not soluble
9,MASGKATSLYSHAEIFLPSKQESGIKKKSGEETQQTKGATIESSRINQNRAERTQRFQTQCSKRKPYEIRQGIPERSSSKQDPGNKTASIEHRGRENPSETHES,not soluble
10,SSEAYFPVESGALGPEENFLSLDDILMSQEKLPVRVETPMPRLGAFFLERGAGSEPDHPLPQGTKLELPLWLAKGLFDHKRRILSVELPKMYQEGWRTVFSADANVVDLHKMGPHFYGFGSQLLHFDSPENADISQSLLKTFIGRFRRIMDSSQNSYNEDTSALVARLDETERGLFQIGQRSLNDFQSWEKGQASQITASSLVQNYKKRKFTNMED,soluble
11,MAVLAVVLLLACLERAVAQTFGCSNTKINDQARKMFYDAHNDARRSMAKGLEPNKCGLLSGGKNVYELNWDCEMEAKAQEWADGCPSSFQTFDPTWGQNYATYMGSIADPLPYASMAVNGWWSEIRTVGLTDPDNKYTNSAMFRFANMANGKASAFGCAYALCAGKLSINCIYNKIGYMTNAIIYEKGDACTSDAECTTYSDSQCKNGLCYKAPQAPVVETFTMCPSVTDQSDQARQNFLDTHNKLRTSLAKGLEADGIAAGAFAPMAKQMPKLKYSCTVEANARTWAKGCLYQHSTSAQRPGLGENLYMISINNMPKIQTAEDSSKAWWSELKDFGVGSDNILTQAVFDRGVGHYTQMAWEGTTEIGCFVENCPTFTYSVCQYGPAGNYMNQLIYTKGSPCTADADCPGTQTCSVAEALCVIP,not soluble
12,SHRRFRRHWLVSPSIWWHNRRILDFMPSENRLNGIDVCLNIGALERGSDCKRREERDMAGQAEQMAAELDRHGAAVFFREYPNADHGNVPFYSLTDCVEYLRKAWQR,not soluble
13,MQEKSKMDCHGGISGTIYEYGALTIDGEEYIPFKQYAGKYVLFVNVASYGGLTGQYIELNALQEELAPFGLVILGFPCNQFGKQEPGENSEILPTLKYVRPGGGFVPNFQLFEKGDVNGEKEQKFYTFLKNSCPPTSELLGTSDRLFWEPMKVHDIRWNFEKFLVGPDGIPIMRWHHRTTVSNVKMDILSYMRRQAALGVAENLYFQ,soluble
14,LEIPTSTVVKETLTQLSAHRALLTSNETLRLPVPTHKNHQLCIGEIFQGLDILKNQTVRGGTVERLFQNLSLIKKYIDRQKEKCGEERRRTRQFLDYLQEFLGVLSTEWAIEG,soluble
15,MSLTAPHIVDPAGLLGEALSEASPDLMRSLLQTVINALLSADADAVVGAEWGQPTPGRRSQRNGYRHRGLDTRVGTIDVAVPKLRKGTYFPDWLLERRKRAESALITVVADCYLAGVSTRRMDKLVKTLGIDSLSKSQVSRMATDLDEHVEQFRHRPLDSAGPFTFVAADALTMKVREGGRVVNGVVLLATGVNGDGHREVLGMRVVTSETGPAWNEFFADLVARGLAGVRLVTSDAHAGLREAIAANLPGAAWQRCRTHYAANLMSICPKSMWPAVKAMLHSVYDQPDAPAVAAQFDRLIDYVTDKLPAVAEHLSAAREDILAFTAFPKDVWTQIWSNNPAVIWSPAVGVVDVRHEASGSLVLLSGRGYLQPSRKQSLRRKSACYTGGFANLVGEGHHHHHH,soluble
16,MTIKKSQIEKWIAAQKRHRLSDTHVQMARELGLNPDKLGKIDNHRQEPWKAPLPEFIEEIFYKRFKKERPDVVKPLKQILKEQEIKTKTKKKEKEIRRKEREQEQINNGTDEVLTFQSPTPITE,not soluble
17,MAHHHHHHMRFVFRRLLPASTAAVAAPPSLLSMRGAPSFVHPPAEEAIGKDVRATPANWVTAYVLPEVITEQEEKTLLDFSEPWFERLSYNDGHMDGLIHHYKEFYRSYAAITQAAETGSDAGLNMPHANLEVDLPLVSEALARAHDLAQTYLPCIPIDDRVHFLRLAGSGFIRAHVDESRNSTGIVAGLCLNAGRVMTLTHPAYPGERVELMLAPRCLYILIGRARYDWAHSVDWVGDDDEHIRRIQKSLAVEGTPIRFDGAETPYRRSDRTAIIFRGVSPMTLLVRRMRQRG,not soluble
18,GPGSMVHRQDGAVVHCSRETGRLSAIIAPSILASDFAQLLSECQSVLSPEGGAADWLHVDVMDGHFVPNISIGMCVVQSLRSHLQDVFLDVHCMVSDPDRWVEEMAKAGATQMTFHVEAVADPKAVARHIRAAGMLCGVALKPKTPVSSVLNLVEEQLIDMVLVMTVEPGFGGQSFMQDMMPKVEELRARFPCLNIQVDGGIGPGTIDAPARAGANVIVAGTSIFRADSRKEATESMRRVVQGYLGSTTS,soluble
19,MDMSKASQEQFSMFMNLLCITVKDMPITEYYTSYILWEEVEFLEGVKDLLDPTSAFEDRRSSLYHHLGHNFASNCSLKDDNNVRDAHVVVEDHTKFDNYMYDQMTRKEWTSLHL,soluble
20,MRLRAILASLALALTSLGAQAETIRVAIGTQDTTINCAAGGLLIRELGLLEKYLPRDGRYKDADYRVEWKNFTSGAPLTNEMVAGKLDFGAMADFPGTFNGVAFAAAGKRSLFISVLSGSTRGSGNGIVVPSGSPVQSLAELKGQTISVPFASTAHGMLLRAVAAQGWDPQRDVTIIAQPPEIAGSALQANKIAAHADFVPFAELFPNRGFARKIYDGSQANAPTFHGALVDAAYAERYPEVVVAYLRASIEANRLLAAEPEKYSELIEKVTGIEAEVNYLFHGPLGLQTRDQAWKPEYRQALATSIDTLKLLKKADRGLDVERFVDDRYIREAYRQAGLDYQAALADYAPSPLRASDARSGRPIEEFERVAQIWVKGEARVRHYASPESALADLAELKAQGKAIRAIYAQDRDSGIKLLANQAWFVRDGEGRLNAFLLREQAQDYARRHGGEVRDFAAASQQALALR,not soluble
21,LTGPLMLDTAPNAFDDQYEGCVNKMEEKAPLLLQEDFNMNAKLKVAWEEAKKRWNNIKPSRSYPKGFNDFHGTALVAYTGSIAVDFNRAVREFKENPGQFHYKAFHYYLTRALQLLSNGDCHSVYRGTKTRFHYTGAGSVRFGQFTSSSLSKKVAQSQEFFSDHGTLFIIKTCLGVYIKEFSFRPDQEAVLIPGYEVYQKVRTQGYNEIFLDSPKRKKSNYNCLYS,soluble
22,MGSDKIHHHHHHMSSHQLPFQRSDEEVQASSGDSLTIARKQEVVQLLKQISDRTLKNDIISLGMVRNLRIVDDYIYLRLYIGSHQHQLETEIQTVLSSLTWSKKTYIQLCTIPGVRTTLAVSSGKGGVGKSTTAVNLAAALQLAGAKVGLLDADVYGPNVPQMLGLGKSEVKVIDTPKGQRFVPLEAHGIKVMSVGLLAEADHPLAWRGPVLHKIITQFIHEVEWGELDYLLIDLPPGTGDAQITIVQESPICGVILVTTPQNVAISDVRRSVYMFRQVGVPVIEIIENMSYFIGNGGEKISIFGSGGGQKLVEELKAPLLGQIPIDPLICNGGDVGEPLMLVDPNSKASQVFVQIAGALNATFSGSM,not soluble
23,MGSDKIHHHHHHMIFYCALSIGRVFSATIKTCPNVHQVHHVVLTIEMSINMQNNEQTEYKTVRGLTRGLMLLNMLNKLDGGASVGLLAELSGLHRTTVRRLLETLQEEGYVRRSPSDDSFRLTIKVRQLSEGFRDEQWISALAAPLLGDLLREVVWPTDVSTLDVDAMVVRETTHRFSRLSFHRAMVGRRLPLLKTASGLTWLAFCPEQDRKELIEMLASRPGDDYQLAREPLKLEAILARARKEGYGQNYRGWDQEEKIASIAVPLRSEQRVIGCLNLVYMASAMTIEQAAEKHLPALQRVAKQIEEGVESQAILVAGRRSGMHLR,not soluble
